Assay results as given in the supplement of paper PMC12042874.
± gives the uncertainty stated by the source.

Tests used:
[1] = amyloid nucleation score (Sup35N fusion, yeast selection) (log enrichment); library NNK2; higher = more nucleation; inactive = no reads after selection
Method in brief: (§1)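 Random libraries were run with three technical output replicates. In each, psi-negative yeast expressing Sup35N fused to peptides of 20 random codons were induced 24 hours with 100 μM copper sulfate and grown 7 days at 30°C on medium lacking adenine and uracil, and input and output plasmid inserts were Illumina-sequenced. The nucleation score is the DiMSum log enrichment of output over input reads, centred on the mode score of non-aggregating sequences, and sequences under 100 input reads were excluded.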

[2] = amyloid nucleation score (Sup35N fusion, yeast selection) (log enrichment); library NNK3; higher = more nucleation; inactive = no reads after selection
Method in brief: as §1

Substance: ASTLPYYECEYR
- amyloid nucleation score [1]: 0.343 ± 0.18

Substance: ASVAGSV
- amyloid nucleation score [1]: 0.781 ± 0.27

Substance: ASWYRMWMWCEHTSSRLCVK
- amyloid nucleation score [1]: 5.268 ± 0.037

Substance: ATHKVWFESGYAHTPLVYLF
- amyloid nucleation score [1]: -0.588 ± 0.78

Substance: ATKRGVHSQLCDCLRCMEFS
- amyloid nucleation score [1]: 0.386 ± 0.32

Substance: ATSMVSSTRVHVHFDHVRVE
- amyloid nucleation score [1]: 6.54 ± 0.066

Substance: ATVIEYKYVRGMYLLMTYTY
- amyloid nucleation score [1]: -0.536 ± 1

Substance: AVASVETDGSKIYMMDVLNY
- amyloid nucleation score [1]: -1.16 ± 1.1

Substance: AVFSRYCLIYVIMLDHDTDP
- amyloid nucleation score [1]: 5.03 ± 0.099

Substance: AVISGCFMRGLTTRIRTTLM
- amyloid nucleation score [1]: -0.073 ± 0.74

Substance: AVLFRRVAFRHNWPW
- amyloid nucleation score [1]: 0.995 ± 0.68

Substance: AVNSNDTRDGRCGVIAI
- amyloid nucleation score [1]: 0.057 ± 0.31

Substance: AVQVLYRGTFLLPFWRVANV
- amyloid nucleation score [1]: -0.487 ± 1.1

Substance: AVVTPKMIMMGWTEGGINVR
- amyloid nucleation score [1]: -0.864 ± 0.76

Substance: AWEAPPYMCRDILRSWRGRL
- amyloid nucleation score [1]: 0.757 ± 0.51

Substance: AWRKRH
- amyloid nucleation score [1]: 0.746 ± 0.18

Substance: AWRVRTLQGFYGSDAWQSHD
- amyloid nucleation score [1]: -0.237 ± 0.79

Substance: AWYWN
- amyloid nucleation score [1]: -0.49 ± 0.33

Substance: AYASPCMQDLGRCLGRPRML
- amyloid nucleation score [1]: 1.21 ± 0.31

Substance: AYGVSPI
- amyloid nucleation score [1]: -0.093 ± 0.35

Substance: AYLPHAHTT
- amyloid nucleation score [1]: -0.154 ± 0.33

Substance: YSKRSLDYI
- amyloid nucleation score [2]: inactive

Substance: YSLSINCMFRYRSFSDFIDN
- amyloid nucleation score [2]: 0.992 ± 0.2

Substance: YSMFN
- amyloid nucleation score [2]: inactive

Substance: YSNSELSGECRLLHKITSD
- amyloid nucleation score [2]: inactive

Substance: YSNWKLRRRCYLRDNIFWVI
- amyloid nucleation score [2]: inactive

Substance: YSPAK
- amyloid nucleation score [2]: inactive

Substance: YSRPMVTL
- amyloid nucleation score [2]: inactive

Substance: YSRSQTMSTACNVVYVFSGQ
- amyloid nucleation score [2]: inactive

Substance: YSSECALWNCRACVLYIHYR
- amyloid nucleation score [2]: 1.27 ± 0.16

Substance: YSSHVPSLHQLDQVSRRVQG
- amyloid nucleation score [2]: inactive

Substance: YSSVILVY
- amyloid nucleation score [2]: 0.156 ± 0.48

Substance: YSTPTDMLDLQFDKSASRGV
- amyloid nucleation score [2]: inactive

Substance: YSVIMPCSNLNWVDMNLTEY
- amyloid nucleation score [2]: -0.169 ± 0.29

Substance: YSWYEDPWWGERFWP
- amyloid nucleation score [2]: inactive

Substance: YSYTILHNFNKCSVKTLIFF
- amyloid nucleation score [2]: 2.38 ± 0.058

Substance: YTAKYGGFISLYR
- amyloid nucleation score [2]: 0.691 ± 0.15

Substance: YTCNST
- amyloid nucleation score [2]: inactive

Substance: YTFIIGIKHSTSSFNMSFSM
- amyloid nucleation score [2]: 0.613 ± 0.25

Substance: YTFLSVAFLD
- amyloid nucleation score [2]: inactive

Substance: YTFRCIYRADYNTP
- amyloid nucleation score [2]: inactive

Substance: YTFRMYGLMDNLHCAPWF
- amyloid nucleation score [2]: inactive

Substance: YTLAFECLPSLTMQVRNWMM
- amyloid nucleation score [2]: inactive

Substance: YTLKCIQVVWLSMPVSVSNV
- amyloid nucleation score [2]: inactive

Substance: YTMLSVCGVYICYKVYSMCW
- amyloid nucleation score [2]: 0.527 ± 0.4

Substance: YTQFYSMILDRRFCFNSVEL
- amyloid nucleation score [2]: inactive

Substance: YTRCNISNMV
- amyloid nucleation score [2]: inactive

Substance: YTVMFLGANYSYVVKSMSRS
- amyloid nucleation score [2]: inactive

Substance: YVCGLRRKSLVGKLYSIGLS
- amyloid nucleation score [2]: inactive

Substance: YVDMP
- amyloid nucleation score [2]: 0.089 ± 0.87

Substance: YVFGNWLLCFEHTKMH
- amyloid nucleation score [2]: 1.1 ± 0.14

Substance: YVFVCIRPPLVGVHEFNSRS
- amyloid nucleation score [2]: -0.089 ± 0.56

Substance: YVHWLGSALREGDWVLPSAL
- amyloid nucleation score [2]: inactive

Substance: YVIGDVIIFPSSFMINCLYC
- amyloid nucleation score [2]: 2.4 ± 0.081

Substance: YVILGQDDHEKT
- amyloid nucleation score [2]: inactive

Substance: YVSSRNRHYGSPYLGVCVFK
- amyloid nucleation score [2]: inactive

Substance: YVTGVLDC
- amyloid nucleation score [2]: inactive

Substance: YVTHMQLGYLSVMCMEVKRG
- amyloid nucleation score [2]: 1.35 ± 0.085

Substance: YVVRN
- amyloid nucleation score [2]: inactive

Substance: YVVVLMSLHWRNWGALRRTC
- amyloid nucleation score [2]: inactive

Substance: YVYWREFGACMGSQQWVVRV
- amyloid nucleation score [2]: inactive

Substance: YWDVNQGVYGINYGTVSHS
- amyloid nucleation score [2]: 0.256 ± 0.43

Substance: YWFIAQAYKGRCVGSTVDKR
- amyloid nucleation score [2]: inactive

Substance: YWFSQFVIFGCSS
- amyloid nucleation score [2]: inactive

Substance: YWGIDHRIAGYIC
- amyloid nucleation score [2]: inactive

Substance: YWLSPDKICTYYLVWVRRAP
- amyloid nucleation score [2]: inactive

Substance: YWQPWVNLDSYRCGHNSQFP
- amyloid nucleation score [2]: inactive

Substance: YWSIFTLVVPMRFAFIWS
- amyloid nucleation score [2]: inactive

Substance: YWSNSYGIECCRLVQQAPTE
- amyloid nucleation score [2]: -0.132 ± 0.33

Substance: YYAATPGSYLAGGRWITLF
- amyloid nucleation score [2]: 0.219 ± 0.47

Substance: YYDHGNFRCMSTKRPVWQVF
- amyloid nucleation score [2]: inactive

Substance: YYFPWLYAKYSVVIINDMEP
- amyloid nucleation score [2]: 2.64 ± 0.05

Substance: YYFRPVSPRDLSQVDCRTDL
- amyloid nucleation score [2]: inactive

Substance: YYFRRVWTCPLIAQIIKSDL
- amyloid nucleation score [2]: 0.39 ± 0.71

Substance: YYFRRWGHS
- amyloid nucleation score [2]: inactive

Substance: YYHLGLLDVSINEIRT
- amyloid nucleation score [2]: inactive

Substance: YYIHCVWYNADKVYEG
- amyloid nucleation score [2]: 2.37 ± 0.059

Substance: YYLCYLSVHLSMIGCKEKGR
- amyloid nucleation score [2]: inactive

Substance: YYMRDCSYIHEFGTGVASDR
- amyloid nucleation score [2]: inactive

Substance: YYTGFTIFLLRVWLLAGVGS
- amyloid nucleation score [2]: inactive

Substance: YYVVVQADVGNI
- amyloid nucleation score [2]: inactive

Substance: YYWDKLFCMYKTAHGVSIYV
- amyloid nucleation score [2]: inactive

Substance: YYWLLIGLLFRVLLMLVQGK
- amyloid nucleation score [2]: inactive
